US20250002610A1 (Genmab, published 2025)

T1: human FAPα (Fibroblast activation protein alpha), cell surface expressed (human, UniProt Q12884 1-760)
T1 construct: Endogenous on human lung fibroblasts and CAFs
T1 sequence: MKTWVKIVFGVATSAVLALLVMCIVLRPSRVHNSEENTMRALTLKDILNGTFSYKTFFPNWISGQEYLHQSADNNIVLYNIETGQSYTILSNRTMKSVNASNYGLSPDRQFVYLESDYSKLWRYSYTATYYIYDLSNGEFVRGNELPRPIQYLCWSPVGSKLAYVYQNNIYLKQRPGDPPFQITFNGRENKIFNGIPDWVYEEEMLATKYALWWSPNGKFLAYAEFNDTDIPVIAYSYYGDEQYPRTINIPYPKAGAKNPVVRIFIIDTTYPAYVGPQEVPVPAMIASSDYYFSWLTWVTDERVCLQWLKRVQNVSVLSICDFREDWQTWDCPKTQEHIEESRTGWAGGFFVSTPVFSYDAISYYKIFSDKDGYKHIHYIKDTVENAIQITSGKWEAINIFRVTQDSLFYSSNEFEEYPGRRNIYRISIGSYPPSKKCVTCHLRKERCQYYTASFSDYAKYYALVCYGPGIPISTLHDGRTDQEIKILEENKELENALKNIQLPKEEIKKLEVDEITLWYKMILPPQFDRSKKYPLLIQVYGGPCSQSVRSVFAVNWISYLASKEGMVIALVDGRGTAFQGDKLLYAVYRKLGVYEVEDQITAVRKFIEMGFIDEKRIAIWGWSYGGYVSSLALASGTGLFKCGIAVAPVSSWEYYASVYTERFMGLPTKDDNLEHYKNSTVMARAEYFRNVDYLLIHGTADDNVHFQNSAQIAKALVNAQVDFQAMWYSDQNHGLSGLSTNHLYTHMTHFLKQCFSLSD

T2: human DR4 (Death Receptor 4), cell surface expressed on human tumor cell lines (human, UniProt O00220 24-468)
T2 construct: also called TNFRSF10A; TRAIL-R1
T2 sequence: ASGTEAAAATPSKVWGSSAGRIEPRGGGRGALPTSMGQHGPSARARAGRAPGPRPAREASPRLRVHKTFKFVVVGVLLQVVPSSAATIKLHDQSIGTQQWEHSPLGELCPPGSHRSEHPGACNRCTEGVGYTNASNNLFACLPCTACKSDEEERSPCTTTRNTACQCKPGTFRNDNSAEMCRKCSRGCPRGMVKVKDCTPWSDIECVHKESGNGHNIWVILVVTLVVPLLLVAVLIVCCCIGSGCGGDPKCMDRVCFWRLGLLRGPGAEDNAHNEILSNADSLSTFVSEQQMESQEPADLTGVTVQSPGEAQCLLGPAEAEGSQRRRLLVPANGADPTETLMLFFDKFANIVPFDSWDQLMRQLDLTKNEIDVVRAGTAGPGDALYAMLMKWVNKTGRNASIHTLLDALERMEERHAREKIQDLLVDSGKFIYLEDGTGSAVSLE


What was measured:
[1] = target: T1, human FAPα (Fibroblast activation …); experiment: flow cytometry, CAFs, average ± SEM
Description: Binding of bispecific or monoclonal antibodies carrying the anti-FAPα arm derived from IgG1-FAPα-FERL (BisG1-FAPα-FERL/DR4-FERR, BisG1-FAPα-FERL/b12-FERR, and IgG1-FAPα-FERL) to cell surface expressed human FAPα was analyzed by flow cytometry using human lung fibroblasts and CAFs, which endogenously express FAPα. BisG1-b12-FERL/b12-FERR was used as negative control.
Human lung fibroblasts and CAFs (50,000 cells/well) were seeded in 96-Well round bottom plates (Greiner Bio-one, Cat #650101). Antibody dilutions were prepared using fluorescence-activated cell sorting (FACS) buffer, consisting of phosphate buffer saline (PBS, Lonza, Cat #BE17-517Q)+1% Bovine Serum Albumin (BSA, Roche, Cat #10735086001)+0.02% Sodium Azide (Bio-World, Cat #41920044-3). Plates were centrifuged, supernatant was removed, cells were resuspended in 50 μL of human Fc Block (BD, Cat #564220, diluted 1:100 in FACS buffer) and 50 μL of viability stain TO-PRO-3 Iodide (Thermo Fisher, Cat #T3605, diluted 1: 25,000 in FACS buffer), and incubated for 15 min at 4° C. Plates were washed three times with FACS buffer. […] Antibody binding to viable cells (TO-PRO-3 negative) was analyzed by flow cytometry on a FACSCelesta™ (BD biosciences) and data were processed using FlowJo_v10.8.1 (FlowJo LLC). Geomean fluorescence intensity, gMFI, was determined and visualized using GraphPad Prism.

[2] = target: T2, human DR4 (Death Receptor 4), cell …; experiment: flow cytometry, HCT-15 cells, average ± SEM

Binder	EC50 [1] [µg/mL]	EC50 [2] [µg/mL]
BisG1-FAPα-FERL/DR4-FERR (bispecific antibody, human IgG1, kappa, lambda, Human IgG1 bispecific made by controlled Fab-arm exchange of IgG1-FAPα-FERL and IgG1-DR4-FERR; monovalent for FAPα and for DR4; also called GEN1057) heavy 1: EVQLLESGGGLVQPGGSPRLSCEASGFTFSSYALSWVRQAPGKGLEWVSAISGSGGGRYYADSVKGRFTISRDNSKNTLFLQMNSLRAEDTAVYYCAKEGYSSSGTYWDHWGQGTLVTVSSASTKGPSVFPLAPSSKSTSGGTAALGCLVKDYFPEPVTVSWNSGALTSGVHTFPAVLQSSGLYSLSSVVTVPSSSLGTQTYICNVNHKPSNTKVDKRVEPKSCDKTHTCPPCPAPEFERGPSVFLFPPKPKDTLMISRTPEVTCVVVDVSHEDPEVKFNWYVDGVEVHNAKTKPREEQYNSTYRVVSVLTVLHQDWLNGKEYKCKVSNKALPAPIEKTISKAKGQPREPQVYTLPPSREEMTKNQVSLTCLVKGFYPSDIAVEWESNGQPENNYKTTPPVLDSDGSFLLYSKLTVDKSRWQQGNVFSCSVMHEALHNHYTQKSLSLSPG light 1: AIQMTQSPSSVSASVGDRVTITCRASQGVSSWLAWYQQKPGRAPKLLIYVASTLQSGVPSRFSGSGSGTDFTLTINSLQPEDFATYYCQQANSFPPTFGQGTRLEMKRTVAAPSVFIFPPSDEQLKSGTASVVCLLNNFYPREAKVQWKVDNALQSGNSQESVTEQDSKDSTYSLSSTLTLSKADYEKHKVYACEVTHQGLSSPVTKSFNRGEC heavy 2: QVQLQESGPGLVKPSGTLSLTCAVSGGSISSYSWWSWIRQPPGKGLEWIGELYHSGSTNYNPSLKSRVTISVDKSKNQFSLKLRSVTAADTAVYYCVRGVATIDYWGQGTLVTVSSASTKGPSVFPLAPSSKSTSGGTAALGCLVKDYFPEPVTVSWNSGALTSGVHTFPAVLQSSGLYSLSSVVTVPSSSLGTQTYICNVNHKPSNTKVDKRVEPKSCDKTHTCPPCPAPEFERGPSVFLFPPKPKDTLMISRTPEVTCVVVDVSHEDPEVKFNWYVDGVEVHNAKTKPREEQYNSTYRVVSVLTVLHQDWLNGKEYKCKVSNKALPAPIEKTISKAKGQPREPQVYTLPPSREEMTKNQVSLTCLVKGFYPSDIAVEWESNGQPENNYKTTPPVLDSDGSFFLYSRLTVDKSRWQQGNVFSCSVMHEALHNHYTQKSLSLSPG light 2: QSALTQPPSASGSPGQSVTISCTGTSSDVGGYNFVSWYQQDPGKAPKLLIYEVTKRPSGVPDRFSGSKSGNTASLTVSGLQAEDEADYYCSSYAGSNNVMFGGGTKLTVLGQPKAAPSVTLFPPSSEELQANKATLVCLISDFYPGAVTVAWKADSSPVKAGVETTTPSKQSNNKYAASSYLSLTPEQWKSHRSYSCQVTHEGSTVEKTVAPTECS	0.203	0.65
BisG1-FAPα-FERL/b12-FERR (bispecific antibody, human IgG1, kappa) heavy 1: EVQLLESGGGLVQPGGSPRLSCEASGFTFSSYALSWVRQAPGKGLEWVSAISGSGGGRYYADSVKGRFTISRDNSKNTLFLQMNSLRAEDTAVYYCAKEGYSSSGTYWDHWGQGTLVTVSSASTKGPSVFPLAPSSKSTSGGTAALGCLVKDYFPEPVTVSWNSGALTSGVHTFPAVLQSSGLYSLSSVVTVPSSSLGTQTYICNVNHKPSNTKVDKRVEPKSCDKTHTCPPCPAPEFERGPSVFLFPPKPKDTLMISRTPEVTCVVVDVSHEDPEVKFNWYVDGVEVHNAKTKPREEQYNSTYRVVSVLTVLHQDWLNGKEYKCKVSNKALPAPIEKTISKAKGQPREPQVYTLPPSREEMTKNQVSLTCLVKGFYPSDIAVEWESNGQPENNYKTTPPVLDSDGSFLLYSKLTVDKSRWQQGNVFSCSVMHEALHNHYTQKSLSLSPG light 1: AIQMTQSPSSVSASVGDRVTITCRASQGVSSWLAWYQQKPGRAPKLLIYVASTLQSGVPSRFSGSGSGTDFTLTINSLQPEDFATYYCQQANSFPPTFGQGTRLEMKRTVAAPSVFIFPPSDEQLKSGTASVVCLLNNFYPREAKVQWKVDNALQSGNSQESVTEQDSKDSTYSLSSTLTLSKADYEKHKVYACEVTHQGLSSPVTKSFNRGEC heavy 2: QVQLVQSGAEVKKPGASVKVSCQASGYRFSNFVIHWVRQAPGQRFEWMGWINPYNGNKEFSAKFQDRVTFTADTSANTAYMELRSLRSADTAVYYCARVGPYSWDDSPQDNYYMDVWGKGTTVIVSSASTKGPSVFPLAPSSKSTSGGTAALGCLVKDYFPEPVTVSWNSGALTSGVHTFPAVLQSSGLYSLSSVVTVPSSSLGTQTYICNVNHKPSNTKVDKRVEPKSCDKTHTCPPCPAPEFERGPSVFLFPPKPKDTLMISRTPEVTCVVVDVSHEDPEVKFNWYVDGVEVHNAKTKPREEQYNSTYRVVSVLTVLHQDWLNGKEYKCKVSNKALPAPIEKTISKAKGQPREPQVYTLPPSREEMTKNQVSLTCLVKGFYPSDIAVEWESNGQPENNYKTTPPVLDSDGSFFLYSRLTVDKSRWQQGNVFSCSVMHEALHNHYTQKSLSLSPG light 2: EIVLTQSPGTLSLSPGERATFSCRSSHSIRSRRVAWYQHKPGQAPRLVIHGVSNRASGISDRFSGSGSGTDFTLTITRVEPEDFALYYCQVYGASSYTFGQGTKLERKRTVAAPSVFIFPPSDEQLKSGTASVVCLLNNFYPREAKVQWKVDNALQSGNSQESVTEQDSKDSTYSLSSTLTLSKADYEKHKVYACEVTHQGLSSPVTKSFNRGEC	0.21	
BisG1-b12-FERL/DR4-FERR (bispecific antibody, human IgG1, kappa, lambda, Fab-arm exchange of IgG1-b12-FERL and IgG1-DR4-FERR; also called bsIgG1-ctrl-FERLxDR4-FERR) heavy 1: QVQLVQSGAEVKKPGASVKVSCQASGYRFSNFVIHWVRQAPGQRFEWMGWINPYNGNKEFSAKFQDRVTFTADTSANTAYMELRSLRSADTAVYYCARVGPYSWDDSPQDNYYMDVWGKGTTVIVSSASTKGPSVFPLAPSSKSTSGGTAALGCLVKDYFPEPVTVSWNSGALTSGVHTFPAVLQSSGLYSLSSVVTVPSSSLGTQTYICNVNHKPSNTKVDKRVEPKSCDKTHTCPPCPAPEFERGPSVFLFPPKPKDTLMISRTPEVTCVVVDVSHEDPEVKFNWYVDGVEVHNAKTKPREEQYNSTYRVVSVLTVLHQDWLNGKEYKCKVSNKALPAPIEKTISKAKGQPREPQVYTLPPSREEMTKNQVSLTCLVKGFYPSDIAVEWESNGQPENNYKTTPPVLDSDGSFLLYSKLTVDKSRWQQGNVFSCSVMHEALHNHYTQKSLSLSPG light 1: EIVLTQSPGTLSLSPGERATFSCRSSHSIRSRRVAWYQHKPGQAPRLVIHGVSNRASGISDRFSGSGSGTDFTLTITRVEPEDFALYYCQVYGASSYTFGQGTKLERKRTVAAPSVFIFPPSDEQLKSGTASVVCLLNNFYPREAKVQWKVDNALQSGNSQESVTEQDSKDSTYSLSSTLTLSKADYEKHKVYACEVTHQGLSSPVTKSFNRGEC heavy 2: QVQLQESGPGLVKPSGTLSLTCAVSGGSISSYSWWSWIRQPPGKGLEWIGELYHSGSTNYNPSLKSRVTISVDKSKNQFSLKLRSVTAADTAVYYCVRGVATIDYWGQGTLVTVSSASTKGPSVFPLAPSSKSTSGGTAALGCLVKDYFPEPVTVSWNSGALTSGVHTFPAVLQSSGLYSLSSVVTVPSSSLGTQTYICNVNHKPSNTKVDKRVEPKSCDKTHTCPPCPAPEFERGPSVFLFPPKPKDTLMISRTPEVTCVVVDVSHEDPEVKFNWYVDGVEVHNAKTKPREEQYNSTYRVVSVLTVLHQDWLNGKEYKCKVSNKALPAPIEKTISKAKGQPREPQVYTLPPSREEMTKNQVSLTCLVKGFYPSDIAVEWESNGQPENNYKTTPPVLDSDGSFFLYSRLTVDKSRWQQGNVFSCSVMHEALHNHYTQKSLSLSPG light 2: QSALTQPPSASGSPGQSVTISCTGTSSDVGGYNFVSWYQQDPGKAPKLLIYEVTKRPSGVPDRFSGSKSGNTASLTVSGLQAEDEADYYCSSYAGSNNVMFGGGTKLTVLGQPKAAPSVTLFPPSSEELQANKATLVCLISDFYPGAVTVAWKADSSPVKAGVETTTPSKQSNNKYAASSYLSLTPEQWKSHRSYSCQVTHEGSTVEKTVAPTECS		0.56
